Measurements published in patent publication US20120237528A1 (Janssen / Centocor, published 2012).
Substitutions are numbered along the chain they refer to.

Experiments:
[1] = target: Innovin, lyophilized recombinant human tissue factor combined with phospholipids (human, UniProt P13726 33-295, limits assumed); assay: cell-based or functional assay
[2] = target: endogenous human tissue factor on MDA-MB-231 breast cancer cells (human, UniProt P13726 33-295); assay: cell-based or functional assay
[3] = target: T1, recombinant extracellular domain (ECD) of human TF, amino acid 1-219 of the mature chain, C-terminal His6-tag (human, UniProt P13726 33-251); assay: Biacore
T1 construct: expressed in a mammalian system; used for ELISA and Biacore; biotinylated by NHS-ester for the Fab ELISA; also called His6-TF-ECD1-219; HumanTF1-219

[4] = target: T1, recombinant extracellular domain (ECD) …; assay: direct ELISA, 50 ng/ml

B1: murine antibody 10H10 (antibody, V domains shown)
VH: QVHLQQSGAELMKPGASVKISCKASGYTFITYWIEWVKQRPGHGLEWIGDILPGSGSTNYNENFKGKATFTADSSSNTAYMQLSSLTSEDSAVYYCARSGYYGNSGFAYWGQGTLVTVSA
VL: DIVMTQSPSSLTVTAGEKVTMSCKSSQSLLSSGNQKNYLTWYQQIPGQPPKLLIYWASTRESGVPDRFTGSGSGTDFTLTINSVQAEDLAVYYCQNDYTYPLTFGAGTKLELK
T½ Max (seconds), coagulation of human plasma [1]: 191 s
% IL-8 Inhibition [2]: 93.9%

B2: M37 (antibody, V domains shown)
VH: QVQLVQSGAEVKKPGSSVKVSCKASGYTFITYWIEWVRQAPGQGLEWMGDILPGSGSTNYNENFKGRVTITADESTSTAYMELSSLRSEDTAVYYCARSGYYGNSGFAYWGQGTLVTVSS
VL: DIVMTQSPDSLAVSLGERATINCKSSQSLLSSGNQKNYLTWYQQKPGQPPKLLIYWASTRESGVPDRFSGSGSGTDFTLTISSLQAEDVAVYYCQNDYTYPLTFGQGTKLEIK
notes: complete MAb; FR4 is its own entry; also called H19/L2
Kd [3]: 0.54 nM
koff [3]: 3.7e-05 s⁻¹
kon [3]: 69000 M⁻¹ s⁻¹
T½ Max (seconds), coagulation of human plasma [1]: 196 s
% IL-8 Inhibition [2]: 71.2%

B3: M72 (antibody, V domains shown)
VH: EVQLVQSGAEVKKPGATVKISCKVSGYTFITYWIEWVQQAPGKGLEWMGDILPGSGSTNYAEKFQGRVTITADTSTDTAYMELSSLRSEDTAVYYCATSGYYGNSGFAYWGQGTLVTVSS
VL: B2 VL
notes: complete MAb; FR4 is its own entry; also called H24/L2
binding result [4]: binds

B4: M23 (antibody, V domains shown)
VH: B2 VH with S16A, G44R, A72R, E74T, T76A
VL: B2 VL
notes: complete MAb; FR4 is its own entry; also called H17/L2
binding result [4]: binds

B5: M65 (antibody, V domains shown)
VH: B2 VH with N61A, E62Q, N63K, K65Q
VL: B2 VL
notes: complete MAb; FR4 is its own entry; also called H23/L2
binding result [4]: binds

B6: M44 (antibody, V domains shown)
VH: B2 VH with S16A, I70M, A72T, E74T, S84R, E89D
VL: B2 VL
notes: complete MAb; FR4 is its own entry; also called H20/L2
binding result [4]: binds

B7: M63 (antibody, V domains shown)
VH: EVQLVQSGAEVKKPGESLRISCKGSGYTFITYWIEWVRQMPGKGLEWMGDILPGSGSTNYSPSFQGHVTISADKSISTAYLQWSSLKASDTAMYYCARSGYYGNSGFAYWGQGTLVTVSS
VL: DIVMTQTPLSSPVTLGQPASISCKSSQSLLSSGNQKNYLTWLQQRPGQPPRLLIYWASTRESGVPDRFSGSGAGTDFTLKISRVEAEDVGVYYCQNDYTYPLTFGQGTKLEIK
notes: complete MAb; FR4 is its own entry; also called H22/L7
binding result [4]: binds

B8: M70 (antibody, V domains shown)
VH: B2 VH with N61A, E62Q, N63K, K65Q
VL: B7 VL
notes: complete MAb; FR4 is its own entry; also called H23/L7
binding result [4]: binds

B9: M74 (antibody, V domains shown)
VH: B3 VH
VL: B7 VL with T7S, S11L, L15P, Q17E, L42Y, Q43L, R45K, P49S, R51Q, A73S
notes: complete MAb; FR4 is its own entry; also called H24/L4
binding result [4]: binds

B10: M14 (antibody, V domains shown)
VH: B7 VH with S61N, P62E, S63N, Q65K
VL: B7 VL
notes: complete MAb; FR4 is its own entry; also called H15/L7
binding result [4]: binds

B11: M21 (antibody, V domains shown)
VH: B2 VH with S16A, I70M, A72R, E74T, A79V
VL: B7 VL
notes: complete MAb; FR4 is its own entry; also called H16/L7
binding result [4]: binds

B12: M49 (antibody, V domains shown)
VH: B2 VH with S16A, I70M, A72T, E74T, S84R, E89D
VL: B7 VL
notes: complete MAb; FR4 is its own entry; also called H20/L7
binding result [4]: binds

B13: M38 (antibody, V domains shown)
VH: B2 VH
VL: B7 VL with S11L, L15P, Q17E, L42Y, Q43L, R45K, P49S, R51Q, A73S
notes: complete MAb; FR4 is its own entry; also called H19/L3
binding result [4]: binds

B14: M73 (antibody, V domains shown)
VH: B3 VH
VL: B7 VL with S11L, L15P, Q17E, L42Y, Q43L, R45K, P49S, R51Q, A73S
notes: complete MAb; FR4 is its own entry; also called H24/L3
binding result [4]: binds

B15: M75 (antibody, V domains shown)
VH: B3 VH
VL: B7 VL with S11L, P12S, L15P, L42Y, Q43L, R45K, R51Q, A73S
notes: complete MAb; FR4 is its own entry; also called H24/L5
binding result [4]: binds

B16: M28 (antibody, V domains shown)
VH: B2 VH with S16A, G44R, A72R, E74T, T76A
VL: B7 VL
notes: complete MAb; FR4 is its own entry; also called H17/L7
binding result [4]: binds

B17: M77 (antibody, V domains shown)
VH: B3 VH
VL: B7 VL
notes: complete MAb; FR4 is its own entry; also called H24/L7
binding result [4]: binds

B18: M1648 (antibody, V domains shown)
VH: B7 VH with I30A, T31P, S55T, S57F, N59T
VL: DIVMTQTPLSLPVTPGEPASISCKSSQSLLPSWNQSNYLTWYLQKPGQSPQLLIYWASTRESGVPDRFSGSGSGTDFTLKISRVEAEDVGVYYCQNDFTYPLTFGQGTKLEIK
notes: complete MAb; FR4 is its own entry; also called H171/L327
Kd [3]: 0.73 nM
T½ Max (seconds), coagulation of human plasma [1]: 161 s

B19: M46 (antibody, V domains shown)
VH: B2 VH with S16A, I70M, A72T, E74T, S84R, E89D
VL: B18 VL with T7S, P31S, W33G, S36K, F98Y
notes: complete MAb; FR4 is its own entry; also called H20/L4
Kd [3]: 0.49 nM
koff [3]: 4.4e-05 s⁻¹
kon [3]: 90000 M⁻¹ s⁻¹
T½ Max (seconds), coagulation of human plasma [1]: 195 s
% IL-8 Inhibition [2]: 82.5%

B20: M40 (antibody, V domains shown)
VH: B2 VH
VL: B18 VL with P12S, E17Q, P31S, W33G, S36K, S49P, F98Y
notes: complete MAb; FR4 is its own entry; also called H19/L5
binding result [4]: binds

B21: M66 (antibody, V domains shown)
VH: B2 VH with N61A, E62Q, N63K, K65Q
VL: B18 VL with P31S, W33G, S36K, F98Y
notes: complete MAb; FR4 is its own entry; also called H23/L3
binding result [4]: binds

B22: M24 (antibody, V domains shown)
VH: B2 VH with S16A, G44R, A72R, E74T, T76A
VL: B18 VL with P31S, W33G, S36K, F98Y
notes: complete MAb; FR4 is its own entry; also called H17/L3
binding result [4]: binds

B23: M25 (antibody, V domains shown)
VH: B2 VH with S16A, G44R, A72R, E74T, T76A
VL: B18 VL with T7S, P31S, W33G, S36K, F98Y
notes: complete MAb; FR4 is its own entry; also called H17/L4
binding result [4]: binds

B24: M42 (antibody, V domains shown)
VH: B2 VH
VL: B7 VL
notes: complete MAb; FR4 is its own entry; also called H19/L7
Kd [3]: 1.02 nM
koff [3]: 8.2e-05 s⁻¹
kon [3]: 80400 M⁻¹ s⁻¹
T½ Max (seconds), coagulation of human plasma [1]: 202 s
% IL-8 Inhibition [2]: 86%

B25: M67 (antibody, V domains shown)
VH: B2 VH with N61A, E62Q, N63K, K65Q
VL: B18 VL with T7S, P31S, W33G, S36K, F98Y
notes: complete MAb; FR4 is its own entry; also called H23/L4
binding result [4]: binds

B26: M17 (antibody, V domains shown)
VH: B2 VH with S16A, I70M, A72R, E74T, A79V
VL: B18 VL with P31S, W33G, S36K, F98Y
notes: complete MAb; FR4 is its own entry; also called H16/L3
binding result [4]: binds

B27: M68 (antibody, V domains shown)
VH: B2 VH with N61A, E62Q, N63K, K65Q
VL: B18 VL with P12S, E17Q, P31S, W33G, S36K, S49P, F98Y
notes: complete MAb; FR4 is its own entry; also called H23/L5
Kd [3]: 1.6 nM
koff [3]: 0.000103 s⁻¹
kon [3]: 64300 M⁻¹ s⁻¹
T½ Max (seconds), coagulation of human plasma [1]: 207 s
% IL-8 Inhibition [2]: 89.8%

B28: M47 (antibody, V domains shown)
VH: B2 VH with S16A, I70M, A72T, E74T, S84R, E89D
VL: B18 VL with P12S, E17Q, P31S, W33G, S36K, S49P, F98Y
notes: complete MAb; FR4 is its own entry; also called H20/L5
binding result [4]: binds

B29: M1650 (antibody, V domains shown)
VH: B7 VH with I30A, T31P, S55T, S57F, N59T
VL: B18 VL with P31T, W33Y, S36R, F98L
notes: complete MAb; FR4 is its own entry; also called H171/L369
Kd [3]: 0.19 nM
T½ Max (seconds), coagulation of human plasma [1]: 150 s

B30: M26 (antibody, V domains shown)
VH: B2 VH with S16A, G44R, A72R, E74T, T76A
VL: B18 VL with P12S, E17Q, P31S, W33G, S36K, S49P, F98Y
notes: complete MAb; FR4 is its own entry; also called H17/L5
Kd [3]: 1.13 nM
koff [3]: 9.3e-05 s⁻¹
kon [3]: 82600 M⁻¹ s⁻¹
T½ Max (seconds), coagulation of human plasma [1]: 186 s
% IL-8 Inhibition [2]: 79.1%

B31: M18 (antibody, V domains shown)
VH: B2 VH with S16A, I70M, A72R, E74T, A79V
VL: B18 VL with T7S, P31S, W33G, S36K, F98Y
notes: complete MAb; FR4 is its own entry; also called H16/L4
binding result [4]: binds

B32: M39 (antibody, V domains shown)
VH: B2 VH
VL: B18 VL with T7S, P31S, W33G, S36K, F98Y
notes: complete MAb; FR4 is its own entry; also called H19/L4
binding result [4]: binds
